Assay [1] relates to HEG1 protein on the surface of ACC-MESO4 cells. As to the kind of experiment: Flow cytometry of ACC-MESO4 cells with antibody. Format: cell-based, human. The conditions noted are these: FITC-labeled anti-mouse IgG, flow cytometer. As to the method:
First, ACC-MESO4 was cultured, and cells adhering to the culture dish were peeled off with a scraper. The cells peeled off were reacted with the SKM9-2 antibody, and then treated with FITC-labeled anti-mouse IgG, and analyzed by using a flow cytometer. […] If the SKM9-2 antibody binds to the extracellular region of HEG1 protein, cells are to be FITC-labeled and thus fluorescence would be observed in flow cytometry.

Assay [2] concerns Lung carcinoma, other carcinomas, soft tissue sarcoma, bone sarcoma. The assay can be described thus: Immunohistological staining of other carcinomas and sarcomas (detection specificity to mesothelioma). The arrangement: species or system human. As to the method:
(§1) AMeX-fixed cell precipitates or formalin-fixed tissues were paraffin-embedded to prepare thin sections. Each of the sections was fixed to a microscope slide, and subjected to deparaffinization and dehydration with xylene and ethanol, followed by activation of an antigen under different conditions. Each section was treated with 3% hydrogen peroxide for 5 minutes to deactivate endogenous peroxidase, and then washed with PBS and blocked with 0.5% casein for 10 minutes. After 100 μL of a solution containing a primary antibody was added to each section and treated at room temperature for 2 hours, the section was washed with PBS and allowed to develop color by using a Histofine Simple Stain MAX-PO (Multi) ([…] BIOSCIENCE INC.), Ventana ultraView DAB universal kit (Roche Diagnostics K. K.), or the EnVision+kits. Each section was stained with hematoxylin and then dehydrated, and encapsulated with Malinol (MUTO PURE CHEMICALS CO., LTD.) to observe under a microscope. The conditions for activation of an antigen were as follows: at 98° C. for 40 minutes for calretinin, mesothelin, and the SKM9-2 antigen; and at 95° C. for 64 minutes for cytokeratin 5/6 (CK5/6), podoplanin, and Wilms' tumor gene product 1 (WT-1). The following activation solutions were used: 10 mM Tris buffer (pH 9.0) containing 1 mM ethylenediamine tetraacetate (EDTA) for calretinin, CK5/6, and podoplanin; and 10 mM citrate buffer (pH 6.0) containing 0.1% TWEEN® 20 (polyethylene glycol sorbitan monolaurate, polyoxyethylenesorbitan monolaurate) for WT-1, mesothelin, and the SKM9-2 antigen. The following primary antibodies were used: a rabbit anti-calretinin polyclonal antibody (PAD:DC8) (Life Technologies Japan Ltd., Tokyo, Japan) for calretinin; a mouse anti-cytokeratin 5,6 monoclonal antibody (D5/16B4) ([…] BIOSCIENCE INC.) for CK5/6; a mouse anti-human mesothelin monoclonal antibody (5B2) (Leica Microsystems, Inc., Bannockburn, IL) for mesothelin; a mouse anti-podoplanin monoclonal antibody (D2-40) (Roche Diagnostics K. K.) for podoplanin; and a mouse anti-human WT-1 monoclonal antibody (6F-H2) (Roche Diagnostics K. K.) for WT-1.
Subsequently, the detection characteristics of the SKM9-2 antibody for other carcinomas were compared with those of other antibodies to confirm the detection specificity to mesothelioma. In this measurement, the detection specificity of each antibody was measured for several carcinomas: gastric carcinoma, colorectal carcinoma, breast carcinoma, ovarian carcinoma, renal cell carcinoma, and urothelial carcinoma, which are more likely to present problems in differential diagnosis of mesothelioma, as “Other carcinomas”; carcinosarcoma, liposarcoma, rhabdomyosarcoma, leiomyosarcoma, fibrosarcoma, synovial sarcoma, gastrointestinal stromal sarcoma (GIST), Ewing's sarcoma, alveolar soft part sarcoma (ASPS), solitary fibrous tumor, malignant peripheral nerve sheath tumor (MPNST), angiosarcoma, epithelioid hemangioendothelioma, epithelioid angiosarcoma, and biphasic synovial sarcoma as “Soft tissue sarcoma”; and chondrosarcoma and osteosarcoma as “Bone sarcoma”.

A further assay has as its system mesothelioma. The assay can be described thus: Immunohistological staining of mesothelioma tissue sections. The arrangement: species or system human.
Excerpt: For the detection of mesothelioma according to the present invention, the antibody according to the present invention or an antigen-binding fragment thereof is contacted with a sample. In the case that a sample separated from a living body such as cells, a tissue, or a tissue section is used, antibody reaction can be detected by using a method well known to those skilled in the art (e.g., an immunohistological staining method). If antibody reaction is then observed (e.g., in the case of a positive result), the subject from whom the sample is derived is likely to be affected with mesothelioma. Whether a result for antibody reaction is positive can be determined in accordance with an Allred Score method (see Allred D C et al., Mod Pathol, 11: 155-168, 1998). In the Allred Score method, for example, a total score is calculated from the following equation: Total score (TS)=Proportion score (PS)+Intensity score (IS) If the total score is 3 or more, then it can be determined that the result for reaction is positive. PS and IS can be determined from the following score tables. Score Tables for Allred Score Method Proportion Score, PS • 0: no staining • 1: a proportion of staining of less than 1% • 2: a proportion of staining of 1% or more and less than 10% • 3: a proportion of staining of 10% or more and less than ⅓ • 4: a proportion of staining of ⅓ or more and less than ⅔ • 5: a proportion of staining of ⅔ or more Intensity score, IS • 0: negative • 1: weak staining • 2: intermediate staining • 3: strong staining
as §1
Hereinafter, cases that the fraction of cells with scores of 1 or more determined in accordance with the Allred Score method was 10% or more in the cell were determined as positive.

The test system of assay [3] is formalin-fixed tissue sections of cancers except mesothelioma. As to the kind of experiment: Hybridoma screening by immunostaining of formalin-fixed tissue sections. To be noted: hybridoma culture supernatant.

B1: SKM9-2 antibody: mouse monoclonal IgG1 kappa antibody binding glycosylated HEG1; heavy chain SEQ ID NO: 2, light chain SEQ ID NO: 4 (antibody, listed as Mus musculus)
heavy: MGWSSIILFLVATTTGVHSQVQLQQPGAELVRPGASVKLSCKASGFSFTTYWITWVKQRPGQGLEWIGMIHPSDSETRLSQTFKDKATLTVDKSSNTAYMQFSSPTSEDSAVYYCVRDFDVWGAGTTVTVSSAKTTPPSVYPLAPGSAAQTNSMVTLGCLVKGYFPEPVTVTWNSGSLSSGVHTFPAVLQSDLYTLSSSVTVPSSTWPSETVTCNVAHPASSTKVDKKIVPRDCGCKPCICTVPEVSSVFIFPPKPKDVLTITLTPKVTCVVVDISKDDPEVQFSWFVDDVEVHTAQTQPREEQFNSTFRSVSELPIMHQDWLNGKEFKCRVNSAAFPAPIEKTISKTKGRPKAPQVYTIPPPKEQMAKDKVSLTCMITDFFPEDITVEWQWNGQPAENYKNTQPIMDTDGSYFVYSKLNVQKSNWEAGNTFTCSVLHEGLHNHHTEKSLSHSPGK
light: MKLPVRLLVLMFWIPASISDVLMTQTPLSLPVSLGDQASISCRSSQNIVHNNGNTYLGWYLQKPGQSPKLLIFKVSNRFSGVPDRFSGSGSGTDFTLKISRVEAEDLGVYYCFQGSHIPRTFGGGTRLEIKRADAAPTVSIFPPSSEQLTSGGASVVCFLNNFYPKDINVKWKIDGSERQNGVLNSWTDQDSKDSTYSMSSTLTLTKDEYERHNSYTCEATHKTSTSPIVKSFNRNEC
As for B1, the “Binding to cell surface of ACC-MESO4” value in assay [1] was “bind to a HEG1 protein part exposed on the surface of the cell membrane”. Further, the “Bone sarcoma (positive cases/cases)” value in assay [2] (chondrosarcoma and osteosarcoma) is on record as 0/20. Moreover, the “Positive cases, epithelioid hemangioendothelioma” value in assay [2] (epithelioid hemangioendothelioma) is 1/6. Further, the “Other carcinomas (positive cases/cases)” value in assay [2] (gastric, colorectal, breast, ovarian, renal cell, urothelial carcinoma) is listed as 1/60. For the same molecule, the “Positive cases, leiomyosarcoma” value in assay [2] (leiomyosarcoma) is reported as 1/10. For the same molecule, in assay [2] (lung carcinoma), the “Lung carcinoma (positive cases/cases)” value is given as 0/98. For the same molecule, in assay [2] (mesothelioma specificity over all non-mesothelioma tumors), the “Specificity (%)” value turned out to be 99.0%. For the same molecule, the “Soft tissue sarcoma (positive cases/cases)” value in assay [2] (soft tissue sarcoma) was 2/132. In addition, the “Positive cases, urothelial carcinoma” value in assay [2] (urothelial carcinoma) was 1/10. For the same molecule, the “Staining of well-differentiated papillary mesothelioma (WDPM)” value in the assay with mesothelioma (WDPM) was “one in one case”. Further, the “Sensitivity (%)” value in the assay on mesothelioma (all mesothelioma types) is recorded as 91.3%. In addition, the “Detection of mesothelioma, Biphasic (positive cases/cases)” value with mesothelioma (biphasic mesothelioma) is listed as 12/13. Also, the “Detection of mesothelioma, Desmoplastic (positive cases/cases)” value with mesothelioma (desmoplastic mesothelioma) was 3/4. For the same molecule, in the assay with mesothelioma (epithelial mesothelioma and sarcomatoid mesothelioma), the “Staining of mesothelioma, representative images” value was “successfully stained”. The “Detection of mesothelioma, Epithelial (positive cases/cases)” value in the assay with mesothelioma (epithelial mesothelioma, positive = fraction of cells with Allred score 1 or more is 10% or more) is recorded as 62/66. For the same molecule, in the assay on mesothelioma (sarcomatoid mesothelioma), the “Detection of mesothelioma, Sarcomatoid (positive cases/cases)” value was 7/9. Further, the “Reactivity with formalin-fixed tissue sections of cancers except mesothelioma” value in assay [3] is listed as “almost non-reactive”.

Values taken from patent US12123876B2, “Antibody binding to HEG1 and use of the antibody for detection and treatment of mesothelioma” (Kanagawa Prefectural Hospital Organization, priority 2016, dated 2024).
